Assay results: patent publication US20050192209A1
Values joined by “and” are separate entries in the source; they are usually repeats but may differ in a detail not shown here. Equal entries are not always repeated.

Target: human heparanase, active 50 kDa form (human) (UniProt Q9Y251)
Test: cell-based or functional assay

UniProt Q9Y251, sequence (Q9Y251 158-543 limits assumed, form in doubt): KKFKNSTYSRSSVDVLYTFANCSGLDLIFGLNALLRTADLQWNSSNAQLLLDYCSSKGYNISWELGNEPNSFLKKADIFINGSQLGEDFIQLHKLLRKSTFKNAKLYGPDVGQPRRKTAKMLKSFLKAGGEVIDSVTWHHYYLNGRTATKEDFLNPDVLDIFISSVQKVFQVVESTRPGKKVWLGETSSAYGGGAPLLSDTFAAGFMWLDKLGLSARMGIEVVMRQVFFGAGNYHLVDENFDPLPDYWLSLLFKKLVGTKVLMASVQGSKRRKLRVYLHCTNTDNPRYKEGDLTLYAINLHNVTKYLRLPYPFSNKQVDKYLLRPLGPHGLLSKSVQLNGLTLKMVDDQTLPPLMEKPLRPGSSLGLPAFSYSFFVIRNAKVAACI

inhibition of heparanase activity (35S-labeled ECM degradation)	inhibition of heparanase activity (release of HS degradation fragments from 35S-labeled ECM, gel filtration)	inhibition of recombinant heparanase activity by eosinophil lysates (cellular MBP), 35S-labeled ECM degradation (fold excess of MBP over heparanase)	Molecule
20 ng/mL			myelin basic protein
5 ng/mL and 13 ng/mL			poly-L-arginine (peptide)
	80 nM and 200 nM	2.5	Major Basic Protein (MBP) purified from human eosinophils (protein, UniProt P13727 106-222, looked up) TCRYLLVRSLQTFSQAWFTCRRCYRGNLVSIHNFNINYRIQCSVSALNQGQVWIGGRITGSGRCRRFQWVDGSRWNFAYWAAHQPWSRGGHCVALCTRGGHWRRAHCLRRLPFICSY
